Results published in the supplement of paper PMC7125110.
± gives the standard error. This sample holds only a part of the variants without activity.

B1: glmS ribozyme (parent)
chain: AUAAAAGCGCCAGAACUACAGAAAUGUAGUUGACGAGGAGGAGGUUUAUCGAAUUUUCGGCGGAUGCCUCCAAA

Variants of: B1
Experiment: self-cleavage kobs at 10000 uM GlcN6P; higher = faster cleavage; RNA array
Settings: with glucosamine-6-phosphate
Procedure, shortened: (§1)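 On sequenced MiSeq chips, barcoded ribozyme variants were made in situ by E. coli RNA polymerase and followed at 37 °C through a hybridised Cy3 probe. Glucosamine-6-phosphate was flowed in at 40 μM to 10 mM in HEPES/KCl/Mg(OAc)2 buffer. Exponential fits to normalised per-tile medians gave kobs, and weighted Michaelis–Menten fits gave kcat and KM.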

Variant	self-cleavage kobs at 10000 uM GlcN6P [s⁻¹]
A6U G38A G66C	< 1e-05
G51U G59C G66U	< 1e-05
C8U C10U G13C C50G G51U A52C C71A	< 1e-05
G7A C34U A42C	< 1e-05
A6C C10G U31A G43U C70U	< 1e-05
C8U A48U C71U	< 1e-05
U46G U55C G66A	0.00269 ± 0.00067
C8A A14U A15G G29A	< 1e-05
G7C A14U U47A	< 1e-05
C10A A14C U30G	< 1e-05
G9A G60U C70G	< 1e-05
A6C C8A A36C	< 1e-05
A6G U30A C34U C67G C71G	7.35e-05 ± 3.3e-05
G9C C10G A52U C71A	< 1e-05
G7A U30A A39C A48C	< 1e-05
A6C G9C C50A C58A A64U C70G	< 1e-05
C50G U57C C71G	9.26e-05 ± 3.1e-05
G9A A53G	3.28e-05 ± 1.3e-05
C8A G35U G44U A52G	< 1e-05
U55G C70U C71G	0.000142 ± 3.8e-05
G9A U65A C67A C70G	5.56e-05 ± 1.6e-05
G9A G43A U57A U65A U69A C71A	< 1e-05
A6G U55G C70U	8.99e-05 ± 1.5e-05
G7A G13C G60A	< 1e-05

Variant	self-cleavage kobs at 10000 uM GlcN6P [s⁻¹]
C10G C34A C67G	0.00066 ± 0.00026
G7C G41A C61U	< 1e-05
C10A C16U A52C	< 1e-05
G7A C71U	3.82e-05 ± 1e-05
G7C C34A A48G U56G C71U	< 1e-05
C8G A14C C68G	< 1e-05
C8A C16U U31C G37U A39U A42U A48U	< 1e-05
G7C G35U G38U	< 1e-05
G7U A15C A36G	< 1e-05
G7C G9U A14G	< 1e-05
C8U U30G A39G G43U	< 1e-05
C8A U56A A64G	< 1e-05
A6U G7U G9C	< 1e-05
C10A A12G A52G C70A	6.91e-05 ± 1.7e-05
U2G U47C	0.00421 ± 0.0012
A6G C10A U30C U49A	< 1e-05
C8U A39C G41A U57C G59U	< 1e-05
C8G A15C G40A G41U C50U C70G	< 1e-05
C8G G43C C50U	< 1e-05
G40C G41U C71A	0.000104 ± 1.6e-05
C8A C11U C34U A39U C58A C67U	< 1e-05
A6C A15U C34A A39G U65A	< 1e-05
A6G C16G C50G	5.57e-05 ± 2.1e-05
A6U C10U G44A C50U	< 1e-05

Variant	self-cleavage kobs at 10000 uM GlcN6P [s⁻¹]
C8A C11G U49C C67G	< 1e-05
G7U C11U C16A U45A G51A G60C	< 1e-05
C8U A42U C50U	< 1e-05
C8A A39U U47G	< 1e-05
C10A C11A G44A	< 1e-05
C8U A12C A15U G38U A64U	< 1e-05
C8U U31C A39U G66C	< 1e-05
A6G G9U G35U G38A G40A	< 1e-05
A6C G32U C50A	< 1e-05
C8A A36G U57C	< 1e-05
G7C C50G C61A	4e-05 ± 1.9e-05
G9A C34A A64G C70G	< 1e-05
C8A A12G U31G A39U	< 1e-05
A4U A39G C70A	0.000171 ± 4.7e-05
G7A A39U G43U	< 1e-05
G7U C50G G51A C70G	6.12e-05 ± 1.7e-05
G9C C11U C61G	0.000219 ± 4.5e-05
A6U U31C A36C	< 1e-05
G9C G38C G43U	< 1e-05
A52U U57A C67U	0.000894 ± 0.0002
A42C A48U G66C	< 1e-05
A39U G60A U65G	< 1e-05
A6U A53C	5.75e-05 ± 9.2e-06
G9U U30C G32A	< 1e-05

Variants of: B1
Experiment: self-cleavage kobs at 2500 uM GlcN6P; higher = faster cleavage; RNA array
Settings: with glucosamine-6-phosphate
Procedure, shortened: as §1

Variant	self-cleavage kobs at 2500 uM GlcN6P [s⁻¹]
G51U G59C G66U	< 1e-05
G66A C67U C70U	0.000488 ± 0.00017
U55A U56A A64G	0.0035 ± 0.00087
A39C G43U A48U G51U	< 1e-05
A42U G43U U46A C70U	6.44e-05 ± 2.4e-05
A42G A52G C67A	0.000326 ± 8.1e-05
G44U U45A U47A	0.000474 ± 0.0002
U45A A52U C67A	8.33e-05 ± 2.5e-05
U46G U55C G66A	0.00233 ± 0.00084
A42U U45C A52G C70U	< 1e-05
G51U U55C G62A G66C C67U	< 1e-05
G62U C68U C71A	< 1e-05
G44A A52U G60U	< 1e-05
G38U U57A G60C G66U	< 1e-05
A39C A53U A64G	0.00188 ± 0.00024
G41C A42U G60C G62C	< 1e-05
G43U U47C G63A	< 1e-05
G40U G43U C50G	< 1e-05
C50G U57C C71G	0.000255 ± 0.00012
C61U U65A C67U C70A	5.06e-05 ± 2.1e-05
U49A U54G	4.22e-05 ± 1.9e-05
U49C C50U U56G	< 1e-05
G43A G62C A64U C70G	< 1e-05
U55G C70U C71G	7.27e-05 ± 1.7e-05
U54A G63A C70U	< 1e-05
G38U A39G C58U G59U	< 1e-05

Variant	self-cleavage kobs at 2500 uM GlcN6P [s⁻¹]
A48C C50G A64C	< 1e-05
G40U G41A C67A C70U	0.000143 ± 3.7e-05
G38U C50G G63C	7.85e-05 ± 2.7e-05
G41C G43U G59A	< 1e-05
A39U U56C C67G	3.66e-05 ± 9.2e-06
G43U A48C C61G	< 1e-05
A39G G43C A52C	< 1e-05
G40U A48C C50U	< 1e-05
A39C U45A C50G C70G	< 1e-05
G38U G41U C50G C68G	< 1e-05
A42G G43A G62U	< 1e-05
U47G C50A A64C	0.000126 ± 3.2e-05
A39U A42C U45G	0.000613 ± 0.00019
G40A U55C C58G	< 1e-05
U47A A53U U65A	0.00126 ± 0.00036
U54A C67A C68U	9e-05 ± 2.1e-05
G38U U45A C71A	< 1e-05
G43U U49G C61G	< 1e-05
U65G C67G C68G	3.55e-05 ± 1.4e-05
U47C U56A A64G	0.000616 ± 0.00019
U46C G60U C70U	< 1e-05
G40U G51C C58U G60U G66U	< 1e-05
U45A U46A	0.0043 ± 0.0021
A39C U47A G66C	0.000411 ± 8.5e-05
A48G C58G G63A C70A	7.77e-05 ± 3.7e-05
U49A G51A G62U	< 1e-05

Variant	self-cleavage kobs at 2500 uM GlcN6P [s⁻¹]
U45C U56C G63A	< 1e-05
U45C G66U C70G	7.12e-05 ± 3.1e-05
G41A C61A G62A	< 1e-05
G40C G41U C71A	4.86e-05 ± 1.8e-05
A52U U56A C58G	< 1e-05
A42U A48G C61A	< 1e-05
G51U A52U U54G U55C	< 1e-05
U46G A48U C61A	< 1e-05
U47A U55C U69C	0.000127 ± 4.1e-05
U55G C58G G60U	< 1e-05
A39G U55G A64G	0.00731 ± 0.0025
C50U A64U C71U	< 1e-05
U47C U57C C71G	< 1e-05
A39G G40C G41C U46G A52G	< 1e-05
U54G C61U C70U	5.89e-05 ± 1.4e-05
A42G C50G G63U	< 1e-05
G43C A48G	< 1e-05
G40U G44A U55C C67U	< 1e-05
U47G A48U U65G	0.000213 ± 5.9e-05
A48C A52G C58U	< 1e-05
G40A G44A	4.13e-05 ± 1.2e-05
G40A U47C C58U	< 1e-05
G40A U47A U49A C70A	< 1e-05
G51A A53C G62C	< 1e-05
U46A U56G C67G	0.000172 ± 4.6e-05
A39C A42G A52U	6.4e-05 ± 1.5e-05

Variant	self-cleavage kobs at 2500 uM GlcN6P [s⁻¹]
U55A G59A A64G	2.94e-05 ± 1.4e-05
A42G U65C	0.000535 ± 0.00016
C50U C70U C71A	0.000152 ± 4e-05
G41C A42G U55A	9.68e-05 ± 2.6e-05
G44U U45G C70U	0.000791 ± 0.00023
A42G G51C G60C C68G	< 1e-05
A39G G41U U69A	5.05e-05 ± 2.2e-05
U47C C58A C68U	3.93e-05 ± 1.6e-05
U56G C58A C71A	3.99e-05 ± 1.6e-05
C58U C61G G66U	6.41e-05 ± 2.3e-05
A39U G51C C71G	< 1e-05
A52U U57A C67U	0.000441 ± 9.6e-05
A39U G66A C70G	0.000771 ± 0.00023
A42G G44C C58A C68U	< 1e-05
C58U U65A C68G	0.000102 ± 3.1e-05
A42C A48U G66C	< 1e-05
A39U G60A U65G	< 1e-05
U47G C68A C71G	0.00013 ± 3.6e-05
A48C C61U G66A	< 1e-05
G38U U55A G62A U69G	0.0012 ± 0.00058
A39C U57A C67G	< 1e-05
G59U G66C	< 1e-05
G41U A53U G60U C61A G66U	< 1e-05
